Measurements published in US20230051266A1 (ABL BIO, published 2023).
Numbering of substitutions follows the chain as printed.

How the values were obtained:
[1] = target: T1, Recombinant Human 4-1BB protein (human, UniProt Q07011 24-186); test: phage ELISA on 4-1BB antigen-coated plates
T1 construct: also called h4-1BB; 4-1BB antigen

Recombinant Human BCMA = target: T2, Recombinant Human BCMA (human, UniProt Q02223 1-54); test: single clone phage ELISA on coated recombinant BCMA
T2 construct: also called hBCMA; recombinant BCMA
T2 sequence: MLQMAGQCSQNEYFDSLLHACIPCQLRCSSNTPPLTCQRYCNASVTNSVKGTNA
Experimental: Specifically, the phage pool obtained according to Example 1-2 was sequentially diluted, and cultured on a solid medium containing LB-tetracycline/cabenicillin to obtain single colonies. Each colony was cultured on a 96-deep well plate so that OD600 was from 0.5 to 0.7. 20 MOI of helper phage was added to each well, and reacted at 37° C. for 1 hour. Thereafter, kanamycin was added to each well and incubated overnight at 30° C. On the next day, the culture was centrifuged and the supernatant thereof was collected, and then, ELISA was performed to select BCMA-specific phages. Each well of the ELISA plate was coated with 100 ng of recombinant BCMA, and then incubated with PBS-B (3% BSA containing PBS) to prevent nonspecific binding. Thereafter, the plate was washed with PBS. The prepared single clone phage was added to each well and incubated at 37° C. for 1 hour, and the plate was washed three times with PBS-T. For detecting the bounded phages, horseradish peroxidase (HRP) conjugated anti-hemagglutinin (HA) antibody was added to each well. After washing step with PBS-T, tetramethylbenzidine (TMB, Sigma, T0440) was added. Clones, which are with an absorbance that is 0.5 or more at the wavelength of 450 nm and also the absorbance is at least 5 times greater than that of the control with anti-HA HRP alone, were selected. Four antibody clones (B58, 5B5, 5D5, and 5A6), which specifically bind to human BCMA, were selected.

B1: AB41 (phage antibody clone) (other)
VH: QVQLQQSGAEVIKPGASVKLSCKASGYTFSSYWMHWVRQAPGQGLEWIGEINPGNGHTNYNEKFKSRATLTGDTSTSTVYMELSSLRSEDTAVYYCARSFTTARAFAYWGQGTLVTVSS
VL: DIVMTQSPAFLSVTPGEKVTITCRASQTISDYLHWYQQKPDQAPKLLIKYASQSISGIPSRFSGSGSGTDFTFTISSLEAEDAATYYCQDGHSFPPTFGQGTKLEIK
notes: Clone as selected by phage ELISA
B1: binds [1].

B2: 5B5 (phage antibody clone) (scFv, V domains shown)
VH: EVQLLESGGGLVQPGGSLRLSCAASGFTFSGHYWSWVRQAPGKGLEWVSTVSGSGGDTFYADSVKGRFTISRDNSKNTLYLQMNSLRAEDTAVYYCARGHSVMDVWGQGTLVTVSS
VL: EIVLTQSPGTLSLSPGERATLSCRASQGIDSYVAWYQQKPGQAPRLLIYDASLRATGIPDRFSGSGSGTDFTLTISRLEPEDFAVYYCQQYNSWPITFGQGTKLEIK
B2: binds (Recombinant Human BCMA).

B3: 5D5 (phage antibody clone) (scFv, V domains shown)
VH: EVQLLESGGGLVQPGGSLRLSCAASGFTFSDYGLSWVRQAPGKGLEWVSLIDSSGSSTFYADSVKGRFTISRDNSKNTLYLQMNSLRAEDTAVYYCAKEHGLFDSWGQGTLVTVSS
VL: B2 VL with R24K, G28D, S31D, Y32D, V33I, A34N, Y91S, N92L, S93R, W94T
B3: binds (Recombinant Human BCMA).

B4: 5A6 (phage antibody clone) (scFv, V domains shown)
VH: EVQLLESGGGLVQPGGSLRLSCAASGFTFSNYGVHWVRQAPGKGLEWVSYISYSGGTYYNPSLKSRFTISRDNSKNTLYLQMNSLRAEDTAVYYCARDSDDFGFDYWGQGTLVTVSS
VL: QSVLTQPPSASGTPGQRVTISCQGDSLRSYYVNWYQQLPGTAPKLLIYDHSKRPTGVPDRFSGSKSGTSASLAISGLRSEDEADYYCQSYDSSTVVFGGGTKLTVL
B4: binds (Recombinant Human BCMA).
